Data taken from patent publication US20140212423A1 (AbbVie / Abbott, published 2014).
Each block holds one binder with its values, some of them ahead of it.

Legend:
[1] = biological target: T1, mouse Transferrin Receptor overexpressed on Hek 293 cells (mouse, UniProt Q62351 1-763); test: 293/mTFR cell-based assay
T1 construct: whole, on cells; also called Hek293/mTfR; 293/mTFR
Procedure: (§1) Meso-scale Discovery (MSD) Electrochemiluminescesnce (ECL) assays to screen for antibodies or DVDs that bind a desired target antigen expressed on the cell surface were performed as follows: Hek 293 cells overexpressing mouse Transferin Receptor were added onto MSD 96-well plates (MSD Cat# L11 XB-3, lot#2290-EA) which were blocked using blocking buffer (30% FBS Serum (Hyclone) in PBS) at 37° C. for 1 hr. After incubating at RT for 30 min with mild agitation, plates were washed with DPBS 3 times and Abs/DVDs (10,000 ng/ml) were added. After incubating for 1 hr at RT, plates were washed 3 times with DPBS and 25 ul of Goat anti human Sulfo TAG (MSD Cat# R32AC-, Lot# W001162) at 1 μg/ml is added. Following a 1 h incubation at RT for 1 hr, plates are washed and MSD read buffer is added before reading on MSD SECTOR Imager 6000. EC50 values are obtained using Xlfit4 software package

[2] = biological target: Repulsive guidance molecule A; test: cell-based or functional assay
[3] = biological target: T1, mouse Transferrin Receptor …; test: cell-based MSD-ECL binding on Hek293 cells overexpressing mouse TfR
Procedure: as §1

T1 sequence (Q62351 whole entry): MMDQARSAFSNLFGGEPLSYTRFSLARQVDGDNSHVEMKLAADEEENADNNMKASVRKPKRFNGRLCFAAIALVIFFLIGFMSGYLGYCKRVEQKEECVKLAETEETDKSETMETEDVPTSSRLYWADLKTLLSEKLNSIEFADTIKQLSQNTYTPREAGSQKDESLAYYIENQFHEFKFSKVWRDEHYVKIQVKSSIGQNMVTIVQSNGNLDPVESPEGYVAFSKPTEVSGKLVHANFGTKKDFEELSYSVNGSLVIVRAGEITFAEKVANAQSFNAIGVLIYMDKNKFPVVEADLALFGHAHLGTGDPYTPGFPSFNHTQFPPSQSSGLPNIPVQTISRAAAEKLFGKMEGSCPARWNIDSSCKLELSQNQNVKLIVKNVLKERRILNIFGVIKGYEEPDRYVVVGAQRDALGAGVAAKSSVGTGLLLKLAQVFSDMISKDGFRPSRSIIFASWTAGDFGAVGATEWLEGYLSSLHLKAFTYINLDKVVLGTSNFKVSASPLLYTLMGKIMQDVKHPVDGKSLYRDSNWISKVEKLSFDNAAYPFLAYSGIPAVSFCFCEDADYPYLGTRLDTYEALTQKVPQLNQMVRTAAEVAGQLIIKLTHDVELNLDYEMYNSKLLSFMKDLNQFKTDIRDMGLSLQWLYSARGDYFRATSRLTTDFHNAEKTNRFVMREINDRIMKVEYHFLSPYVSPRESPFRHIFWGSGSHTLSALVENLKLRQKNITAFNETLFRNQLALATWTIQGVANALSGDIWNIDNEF

EC50 [1]: 4.71 nM
B1: AB405-SL-Aβ(3D6) (bispecific antibody)
VH: QVQLVQSGAEVKKPGASVKVSCKASGFTFSNYGMHWIRQAPGQGLEWIAMIYYDSSKMNYADTVKGRFTITRDNSTNTLYMELSSLRSEDTAVYYCAVPTSHYVVDVWGQGTTVTVSSASTKGPEVQLLESGGGLVQPGGSLRLSCAASGFTFSNYGMSWVRQAPGKGLEWVASIRSGGGRTYYSDNVKGRFTISRDNSKNTLYLQMNSLRAEDTAVYYCVRYDHYSGSSDYWGQGTLVTVSS
VL: EIVMTQSPATLSVSPGERATLSCQASQDIGNWLAWYQQKPGQSPRLLIYGATSLADGVPARFSGSRSGTEFTLTISSLQSEDFAVYYCLQAYNTPWTFGGGTKVEIKRTVAAPSVFIFPPDVVMTQSPLSLPVTPGEPASISCKSSQSLLDSDGKTYLNWLLQKPGQSPQRLIYLVSKLDSGVPDRFSGSGSGTDFTLKISRVEAEDVGVYYCWQGTHFPRTFGQGTKVEIKR
notes: DVD-Ig composed from its name; constant regions not assigned; also called AB405-SL-Aβ(3D6) DVD-Ig

BMP Assay (EC50, nM) [2]: 0.25 nM
B2: RGMA (AE12-1) (antibody, V domains shown)
VH: EVQLVQSGAEVKKPGASVKVSCKASGYTFTSHGISWVRQAPGQGLDWMGWISPYSGNTNYAQKLQGRVTMTTDTSTSTAYMELSSLRSEDTAVYYCARVGSGPYYYMDVWGQGTLVTVSS
VL: QSALTQPRSVSGSPGQSVTISCTGTSSSVGDSIYVSWYQQHPGKAPKLMLYDVTKRPSGVPDRFSGSKSGNTASLTISGLQAEDEADYYCCSYAGTDTLFGGGTKVTVLG

EC50 [1]: 3.9 nM
B3: TfR(AB405)-LS-RGMA(AE12-1) (bispecific antibody)
chain 1: QVQLVQSGAEVKKPGASVKVSCKASGFTFSNYGMHWIRQAPGQGLEWIAMIYYDSSKMNYADTVKGRFTITRDNSTNTLYMELSSLRSEDTAVYYCAVPTSHYVVDVWGQGTTVTVSSASTKGPSVFPLAPEVQLVQSGAEVKKPGASVKVSCKASGYTFTSHGISWVRQAPGQGLDWMGWISPYSGNTNYAQKLQGRVTMTTDTSTSTAYMELSSLRSEDTAVYYCARVGSGPYYYMDVWGQGTLVTVSS
chain 2: EIVMTQSPATLSVSPGERATLSCQASQDIGNWLAWYQQKPGQSPRLLIYGATSLADGVPARFSGSRSGTEFTLTISSLQSEDFAVYYCLQAYNTPWTFGGGTKVEIKRTVAAPQSALTQPRSVSGSPGQSVTISCTGTSSSVGDSIYVSWYQQHPGKAPKLMLYDVTKRPSGVPDRFSGSKSGNTASLTISGLQAEDEADYYCCSYAGTDTLFGGGTKVTVLG

EC50 [1]: 1.98 nM
B4: Aβ(3D6)-GS-AB403 (bispecific antibody)
VH: EVQLLESGGGLVQPGGSLRLSCAASGFTFSNYGMSWVRQAPGKGLEWVASIRSGGGRTYYSDNVKGRFTISRDNSKNTLYLQMNSLRAEDTAVYYCVRYDHYSGSSDYWGQGTLVTVSSGGGGSGGGGSEVQLVESGGGLVQPGGSLRLSCAASGFTFSNYGMHWIRQAPGKGLEWIAMIYYDSSKMNYADTVKGRFTISRDNAKNSLYLQMNSLRAEDTAVYYCAVPTSHYVVDVWGQGTTVTVSS
VL: DVVMTQSPLSLPVTPGEPASISCKSSQSLLDSDGKTYLNWLLQKPGQSPQRLIYLVSKLDSGVPDRFSGSGSGTDFTLKISRVEAEDVGVYYCWQGTHFPRTFGQGTKVEIKRGGSGGGGSGEIVMTQSPATLSVSPGERATLSCQASQDIGNWLAWYQQKPGQSPRLLIYGATSLADGVPARFSGSRSGTEFTLTISSLQSEDFAVYYCLQAYNTPWTFGGGTKVEIKR
notes: DVD-Ig composed from its name; Aβ(3D6) = AB043 read from DVD2359; constant regions not assigned; also called Aβ(3D6)-GS-AB403 DVD-Ig

EC50 [3]: 0.11 nM
B5: DVD1294 (bispecific antibody)
VH: EVQLVESGGGLVQPGNSLTLSCVASGFTFSNYGMHWIRQAPKKGLEWIAMIYYDSSKMNYADTVKGRFTISRDNSKNTLYLEMNSLRSEDTAMYYCAVPTSHYVVDVWGQGVSVTVSSASTKGPEVQLLESGGGLVQPGGSLRLSCAASGFTFSNYGMSWVRQAPGKGLEWVASIRSGGGRTYYSDNVKGRFTISRDNSKNTLYLQMNSLRAEDTAVYYCVRYDHYSGSSDYWGQGTLVTVSS
VL: DIQMTQSPASLSASLEEIVTITCQASQDIGNWLAWYQQKPGKSPQLLIYGATSLADGVPSRFSGSRSGTQFSLKISRVQVEDIGIYYCLQAYNTPWTFGGGTKLELKRTVAAPDVVMTQSPLSLPVTPGEPASISCKSSQSLLDSDGKTYLNWLLQKPGQSPQRLIYLVSKLDSGVPDRFSGSGSGTDFTLKISRVEAEDVGVYYCWQGTHFPRTFGQGTKVEIKR
notes: DVD-Ig, outer AB221 (TfR), inner AB043 (APP), HG-short/LK-short; the entries are the dual variable regions only; constant regions not assigned

EC50 [1]: 12 nM | EC50 [3]: 12 nM
B6: DVD2359 (bispecific antibody)
VH: EVQLLESGGGLVQPGGSLRLSCAASGFTFSNYGMSWVRQAPGKGLEWVASIRSGGGRTYYSDNVKGRFTISRDNSKNTLYLQMNSLRAEDTAVYYCVRYDHYSGSSDYWGQGTLVTVSSASTKGPEVQLVESGGGLVQPGGSLRLSCAASGFTFSNYGMHWIRQAPGKGLEWIAMIYYDSSKMNYADTVKGRFTISRDNAKNSLYLQMNSLRAEDTAVYYCAVPTSHYVVDVWGQGTTVTVSS
VL: DVVMTQSPLSLPVTPGEPASISCKSSQSLLDSDGKTYLNWLLQKPGQSPQRLIYLVSKLDSGVPDRFSGSGSGTDFTLKISRVEAEDVGVYYCWQGTHFPRTFGQGTKVEIKRTVAAPAIQMTQSPSSLSASVGDRVTITCQASQDIGNWLAWYQQKPGKSPKLLIYGATSLADGVPSRFSGSRSGTDFTLTISSLQPEDFATYYCLQAYNTPWTFGGGTKVEIKR
notes: DVD-Ig, outer AB043 (APP), inner AB402 (TfR), HG-short/LK-short; dual variable regions only; constant regions not assigned; also called Aβ(3D6)-SS-AB402 DVD2359; Aβ(3D6)-SS-AB402 DVD-Ig 2359

EC50 [3]: 10.7 nM
B7: DVD2361 (bispecific antibody)
chain 1: B6 VH
chain 2: DVVMTQSPLSLPVTPGEPASISCKSSQSLLDSDGKTYLNWLLQKPGQSPQRLIYLVSKLDSGVPDRFSGSGSGTDFTLKISRVEAEDVGVYYCWQGTHFPRTFGQGTKVEIKRTVAAPEIVMTQSPATLSVSPGERATLSCQASQDIGNWLAWYQQKPGQSPRLLIYGATSLADGVPARFSGSRSGTEFTLTISSLQSEDFAVYYCLQAYNTPWTFGGGTKVEIKR

EC50 [3]: 3.7 nM
B8: DVD1295 (bispecific antibody)
VH: EVQLLESGGGLVQPGGSLRLSCAASGFTFSNYGMSWVRQAPGKGLEWVASIRSGGGRTYYSDNVKGRFTISRDNSKNTLYLQMNSLRAEDTAVYYCVRYDHYSGSSDYWGQGTLVTVSSASTKGPEVQLVESGGGLVQPGNSLTLSCVASGFTFSNYGMHWIRQAPKKGLEWIAMIYYDSSKMNYADTVKGRFTISRDNSKNTLYLEMNSLRSEDTAMYYCAVPTSHYVVDVWGQGVSVTVSS
VL: DVVMTQSPLSLPVTPGEPASISCKSSQSLLDSDGKTYLNWLLQKPGQSPQRLIYLVSKLDSGVPDRFSGSGSGTDFTLKISRVEAEDVGVYYCWQGTHFPRTFGQGTKVEIKRTVAAPDIQMTQSPASLSASLEEIVTITCQASQDIGNWLAWYQQKPGKSPQLLIYGATSLADGVPSRFSGSRSGTQFSLKISRVQVEDIGIYYCLQAYNTPWTFGGGTKLELKR
notes: DVD-Ig, outer AB043 (APP), inner AB221 (TfR), HG-short/LK-short; dual variable regions only; constant regions not assigned

BMP Assay (EC50, nM) [2]: 0.73 nM | EC50 [1]: 4.41 nM
B9: TfR(AB405)-SL-RGMA(AE12-1) (bispecific antibody)
VH: QVQLVQSGAEVKKPGASVKVSCKASGFTFSNYGMHWIRQAPGQGLEWIAMIYYDSSKMNYADTVKGRFTITRDNSTNTLYMELSSLRSEDTAVYYCAVPTSHYVVDVWGQGTTVTVSSASTKGPEVQLVQSGAEVKKPGASVKVSCKASGYTFTSHGISWVRQAPGQGLDWMGWISPYSGNTNYAQKLQGRVTMTTDTSTSTAYMELSSLRSEDTAVYYCARVGSGPYYYMDVWGQGTLVTVSS
VL: EIVMTQSPATLSVSPGERATLSCQASQDIGNWLAWYQQKPGQSPRLLIYGATSLADGVPARFSGSRSGTEFTLTISSLQSEDFAVYYCLQAYNTPWTFGGGTKVEIKRTVAAPSVFIFPPQSALTQPRSVSGSPGQSVTISCTGTSSSVGDSIYVSWYQQHPGKAPKLMLYDVTKRPSGVPDRFSGSKSGNTASLTISGLQAEDEADYYCCSYAGTDTLFGGGTKVTVLG
notes: DVD-Ig composed from its name; constant regions not assigned
